{
  "source": "the RNAGym collection of RNA variant scans (doi:10.7554/elife.80360)",
  "parents": {"B1": {"name": "Hairpin Ribozyme (parent)", "chain": "GUCCUCUUUCACGUGCGCGUGAAAGAGAGAAGUGAACCAGAGAAACACACGUUGUGGUAUAUUACCUGGUA"}},
  "data": [
    {"variants_of": "B1", "assay": "self-cleavage, relative activity (ratio to wild type); higher = more cleavage; co-transcriptional", "values": [
      {"variant": "G13A G17U", "self-cleavage": 0.656},
      {"variant": "G13C A49C", "self-cleavage": 0.115},
      {"variant": "G13C A49U", "self-cleavage": 0.199},
      {"variant": "G13C A49G", "self-cleavage": 0.424},
      {"variant": "C12A G34U", "self-cleavage": 1.31},
      {"variant": "C12U U58G", "self-cleavage": 0.584},
      {"variant": "C12U U58A", "self-cleavage": 0.597},
      {"variant": "C12A G32U", "self-cleavage": 0.114},
      {"variant": "C12A G32A", "self-cleavage": 0.178},
      {"variant": "C12G G29C", "self-cleavage": 0.13},
      {"variant": "C12G G29U", "self-cleavage": 0.234},
      {"variant": "G13A U58C", "self-cleavage": 0.817},
      {"variant": "G13C A61C", "self-cleavage": 0.155},
      {"variant": "C12U A49G", "self-cleavage": 0.564},
      {"variant": "C12G A45G", "self-cleavage": 0.0996},
      {"variant": "C12G C65A", "self-cleavage": 0.829},
      {"variant": "C12G G25U", "self-cleavage": 0.472},
      {"variant": "A11U U14A", "self-cleavage": 0.796},
      {"variant": "G13A A39U", "self-cleavage": 0.32},
      {"variant": "G13A A39C", "self-cleavage": 0.446},
      {"variant": "C12A U14A", "self-cleavage": 0.611},
      {"variant": "C12A U14G", "self-cleavage": 0.566},
      {"variant": "C12A U14C", "self-cleavage": 0.71},
      {"variant": "G13A C37U", "self-cleavage": 0.637},
      {"variant": "G13A C37G", "self-cleavage": 0.174},
      {"variant": "A11G G57C", "self-cleavage": 0.169},
      {"variant": "C12U G17C", "self-cleavage": 0.578},
      {"variant": "C12U G17A", "self-cleavage": 0.91},
      {"variant": "G13A G68U", "self-cleavage": 0.218},
      {"variant": "G13A G68C", "self-cleavage": 0.248},
      {"variant": "A11U A28C", "self-cleavage": 0.53},
      {"variant": "G13A A64G", "self-cleavage": 0.526},
      {"variant": "C12G U53G", "self-cleavage": 0.562},
      {"variant": "C12G U53A", "self-cleavage": 0.911},
      {"variant": "C12G U53C", "self-cleavage": 0.919},
      {"variant": "C12G A31C", "self-cleavage": 0.174},
      {"variant": "C12G U20A", "self-cleavage": 0.795},
      {"variant": "C12U G32C", "self-cleavage": 0.134},
      {"variant": "C12U U14G", "self-cleavage": 0.602},
      {"variant": "C12U U14A", "self-cleavage": 0.73},
      {"variant": "C12G U60G", "self-cleavage": 0.452},
      {"variant": "C12A A36U", "self-cleavage": 0.435},
      {"variant": "C12G C46U", "self-cleavage": 0.191},
      {"variant": "G13C A24G", "self-cleavage": 0.537},
      {"variant": "G13C A28U", "self-cleavage": 0.252},
      {"variant": "G13C A28G", "self-cleavage": 0.85},
      {"variant": "C12A A45G", "self-cleavage": 0.177},
      {"variant": "C12A A45U", "self-cleavage": 0.132},
      {"variant": "A11G U63G", "self-cleavage": 0.296},
      {"variant": "A11G U63C", "self-cleavage": 0.204},
      {"variant": "C12A G17A", "self-cleavage": 0.746},
      {"variant": "C12A G17C", "self-cleavage": 0.978},
      {"variant": "C12A G17U", "self-cleavage": 0.707},
      {"variant": "C12A C38U", "self-cleavage": 0.482},
      {"variant": "C12A C38G", "self-cleavage": 0.187},
      {"variant": "C12G A24U", "self-cleavage": 0.669},
      {"variant": "C12G A26U", "self-cleavage": 0.696},
      {"variant": "C12G A26C", "self-cleavage": 0.555},
      {"variant": "A11U A36U", "self-cleavage": 0.533},
      {"variant": "A11U A36C", "self-cleavage": 0.619},
      {"variant": "C12G C18A", "self-cleavage": 0.926},
      {"variant": "C12G C18U", "self-cleavage": 0.889},
      {"variant": "C12G C18G", "self-cleavage": 0.727},
      {"variant": "A11U U70G", "self-cleavage": 0.656},
      {"variant": "A11U U70A", "self-cleavage": 0.914},
      {"variant": "G13A G56A", "self-cleavage": 0.188},
      {"variant": "C12G U33G", "self-cleavage": 0.0897},
      {"variant": "C12G U33C", "self-cleavage": 0.246},
      {"variant": "G13A A49C", "self-cleavage": 0.102},
      {"variant": "A11U A71C", "self-cleavage": 1.17},
      {"variant": "A11G G54U", "self-cleavage": 0.56},
      {"variant": "G13A G51U", "self-cleavage": 0.821},
      {"variant": "G13A G51A", "self-cleavage": 0.87},
      {"variant": "A11U U63G", "self-cleavage": 0.175},
      {"variant": "C12A U67C", "self-cleavage": 0.216},
      {"variant": "C12A U67A", "self-cleavage": 0.18},
      {"variant": "C12A U67G", "self-cleavage": 0.215},
      {"variant": "G13A G42C", "self-cleavage": 0.302},
      {"variant": "G13A G42U", "self-cleavage": 0.234},
      {"variant": "A11U C66U", "self-cleavage": 0.318},
      {"variant": "A11G U70G", "self-cleavage": 0.846},
      {"variant": "A11U G32U", "self-cleavage": 0.0846},
      {"variant": "A11G U20A", "self-cleavage": 0.637},
      {"variant": "C12G U63G", "self-cleavage": 0.204},
      {"variant": "C12G U63A", "self-cleavage": 0.194},
      {"variant": "C12U G19C", "self-cleavage": 0.955},
      {"variant": "C12U G29U", "self-cleavage": 0.0791},
      {"variant": "C12U G29C", "self-cleavage": 0.133},
      {"variant": "G13C A39U", "self-cleavage": 0.289},
      {"variant": "C12U G51A", "self-cleavage": 1.01},
      {"variant": "C12U G51C", "self-cleavage": 0.809},
      {"variant": "C12U G51U", "self-cleavage": 0.872},
      {"variant": "G13A A24G", "self-cleavage": 0.69},
      {"variant": "G13A A24C", "self-cleavage": 0.76},
      {"variant": "A11U G27U", "self-cleavage": 0.394},
      {"variant": "C12A A30C", "self-cleavage": 0.159},
      {"variant": "C12A A26G", "self-cleavage": 0.766},
      {"variant": "C12A A26U", "self-cleavage": 0.522},
      {"variant": "A11U A24U", "self-cleavage": 0.638},
      {"variant": "C12A G21A", "self-cleavage": 0.767},
      {"variant": "C12U U70C", "self-cleavage": 0.96},
      {"variant": "C12U A45C", "self-cleavage": 0.201},
      {"variant": "C12G C48A", "self-cleavage": 0.128},
      {"variant": "C12A A39U", "self-cleavage": 0.425},
      {"variant": "C12A A39G", "self-cleavage": 0.285},
      {"variant": "G13A A47C", "self-cleavage": 0.352},
      {"variant": "G13A A47G", "self-cleavage": 0.185},
      {"variant": "C12A A23U", "self-cleavage": 0.671},
      {"variant": "C12A A23G", "self-cleavage": 0.677},
      {"variant": "A11U G15U", "self-cleavage": 0.895},
      {"variant": "A11U G69C", "self-cleavage": 0.229},
      {"variant": "A11U G69U", "self-cleavage": 0.26},
      {"variant": "A11U A35U", "self-cleavage": 0.717},
      {"variant": "A11U C48U", "self-cleavage": 0.154},
      {"variant": "A11U C48A", "self-cleavage": 0.215},
      {"variant": "C12G G21U", "self-cleavage": 0.663},
      {"variant": "G13A C66G", "self-cleavage": 0.16},
      {"variant": "C12G G17A", "self-cleavage": 0.913},
      {"variant": "C12G A39C", "self-cleavage": 0.436},
      {"variant": "G13A A61G", "self-cleavage": 0.196},
      {"variant": "G13A A61C", "self-cleavage": 0.223},
      {"variant": "C12A C37U", "self-cleavage": 0.578},
      {"variant": "G13C A31U", "self-cleavage": 0.0909},
      {"variant": "C12A A31C", "self-cleavage": 0.117},
      {"variant": "C12A A31G", "self-cleavage": 0.468},
      {"variant": "C12A U20C", "self-cleavage": 0.919},
      {"variant": "C12A U20A", "self-cleavage": 0.865},
      {"variant": "A11U G54A", "self-cleavage": 0.538},
      {"variant": "C12A C50G", "self-cleavage": 0.389},
      {"variant": "C12A C50A", "self-cleavage": 0.231},
      {"variant": "G13A G19A", "self-cleavage": 0.806},
      {"variant": "A11U U67C", "self-cleavage": 0.223},
      {"variant": "A11U U67A", "self-cleavage": 0.117},
      {"variant": "C12A G27C", "self-cleavage": 0.0872},
      {"variant": "C12A A43U", "self-cleavage": 0.131},
      {"variant": "A11U G19U", "self-cleavage": 0.815},
      {"variant": "C12G G68U", "self-cleavage": 0.193},
      {"variant": "A11G U55A", "self-cleavage": 0.191},
      {"variant": "A11G U14G", "self-cleavage": 0.846},
      {"variant": "C12U G27A", "self-cleavage": 0.328},
      {"variant": "A11G U33C", "self-cleavage": 0.0978},
      {"variant": "G13C A41U", "self-cleavage": 0.819},
      {"variant": "G13C A41C", "self-cleavage": 0.892},
      {"variant": "G13C A41G", "self-cleavage": 0.498},
      {"variant": "G13A C38U", "self-cleavage": 0.396},
      {"variant": "G13A G69C", "self-cleavage": 0.275},
      {"variant": "C12U U67G", "self-cleavage": 0.286},
      {"variant": "C12U U67A", "self-cleavage": 0.348},
      {"variant": "A11U A26C", "self-cleavage": 0.305},
      {"variant": "C12U G34A", "self-cleavage": 1.19},
      {"variant": "C12U G34C", "self-cleavage": 1.14},
      {"variant": "A11U A23G", "self-cleavage": 0.402},
      {"variant": "A11U A23C", "self-cleavage": 0.652},
      {"variant": "C12A U33C", "self-cleavage": 0.166},
      {"variant": "C12U G21C", "self-cleavage": 0.651},
      {"variant": "C12U G21U", "self-cleavage": 0.672},
      {"variant": "C12A A61C", "self-cleavage": 0.239},
      {"variant": "C12A A61U", "self-cleavage": 0.169},
      {"variant": "A11U C65G", "self-cleavage": 0.308},
      {"variant": "A11U C65U", "self-cleavage": 0.25},
      {"variant": "C12A A59G", "self-cleavage": 0.226},
      {"variant": "C12A G56A", "self-cleavage": 0.182},
      {"variant": "C12G A61G", "self-cleavage": 0.154},
      {"variant": "C12G A61U", "self-cleavage": 0.217},
      {"variant": "A11U G68A", "self-cleavage": 0.316},
      {"variant": "C12G C37G", "self-cleavage": 0.294},
      {"variant": "G13C A59U", "self-cleavage": 0.132}
    ]}
  ]
}
